Key:
RecQ E. coli = RecQ E. coli (Escherichia coli, UniProt P15043 1-609); assay: fluorescence anisotropy; IC50 of CdCl2 inhibiting binding (not protein affinity); 200 nM protein, 5 nM DNA; 50 mM Tris-HCl pH 8.0, 50 mM NaCl, 1 mM DTT, 25 C; 200 nM protein, 5 nM 3'-fluorescein DNA; settings: protein: recombinant; label: 3'-fluorescein
BLM642-1290 [1] = target: T1, BLM642-1290 (human, UniProt P54132 642-1290); assay: as above; settings: protein: recombinant; label: 3'-fluorescein
BLM full-length = BLM full-length (human, UniProt P54132 1-1417); assay: as above; settings: protein: recombinant; (Ni-NTA purified); label: 3'-fluorescein
Chain of BLM full-length (P54132 whole entry): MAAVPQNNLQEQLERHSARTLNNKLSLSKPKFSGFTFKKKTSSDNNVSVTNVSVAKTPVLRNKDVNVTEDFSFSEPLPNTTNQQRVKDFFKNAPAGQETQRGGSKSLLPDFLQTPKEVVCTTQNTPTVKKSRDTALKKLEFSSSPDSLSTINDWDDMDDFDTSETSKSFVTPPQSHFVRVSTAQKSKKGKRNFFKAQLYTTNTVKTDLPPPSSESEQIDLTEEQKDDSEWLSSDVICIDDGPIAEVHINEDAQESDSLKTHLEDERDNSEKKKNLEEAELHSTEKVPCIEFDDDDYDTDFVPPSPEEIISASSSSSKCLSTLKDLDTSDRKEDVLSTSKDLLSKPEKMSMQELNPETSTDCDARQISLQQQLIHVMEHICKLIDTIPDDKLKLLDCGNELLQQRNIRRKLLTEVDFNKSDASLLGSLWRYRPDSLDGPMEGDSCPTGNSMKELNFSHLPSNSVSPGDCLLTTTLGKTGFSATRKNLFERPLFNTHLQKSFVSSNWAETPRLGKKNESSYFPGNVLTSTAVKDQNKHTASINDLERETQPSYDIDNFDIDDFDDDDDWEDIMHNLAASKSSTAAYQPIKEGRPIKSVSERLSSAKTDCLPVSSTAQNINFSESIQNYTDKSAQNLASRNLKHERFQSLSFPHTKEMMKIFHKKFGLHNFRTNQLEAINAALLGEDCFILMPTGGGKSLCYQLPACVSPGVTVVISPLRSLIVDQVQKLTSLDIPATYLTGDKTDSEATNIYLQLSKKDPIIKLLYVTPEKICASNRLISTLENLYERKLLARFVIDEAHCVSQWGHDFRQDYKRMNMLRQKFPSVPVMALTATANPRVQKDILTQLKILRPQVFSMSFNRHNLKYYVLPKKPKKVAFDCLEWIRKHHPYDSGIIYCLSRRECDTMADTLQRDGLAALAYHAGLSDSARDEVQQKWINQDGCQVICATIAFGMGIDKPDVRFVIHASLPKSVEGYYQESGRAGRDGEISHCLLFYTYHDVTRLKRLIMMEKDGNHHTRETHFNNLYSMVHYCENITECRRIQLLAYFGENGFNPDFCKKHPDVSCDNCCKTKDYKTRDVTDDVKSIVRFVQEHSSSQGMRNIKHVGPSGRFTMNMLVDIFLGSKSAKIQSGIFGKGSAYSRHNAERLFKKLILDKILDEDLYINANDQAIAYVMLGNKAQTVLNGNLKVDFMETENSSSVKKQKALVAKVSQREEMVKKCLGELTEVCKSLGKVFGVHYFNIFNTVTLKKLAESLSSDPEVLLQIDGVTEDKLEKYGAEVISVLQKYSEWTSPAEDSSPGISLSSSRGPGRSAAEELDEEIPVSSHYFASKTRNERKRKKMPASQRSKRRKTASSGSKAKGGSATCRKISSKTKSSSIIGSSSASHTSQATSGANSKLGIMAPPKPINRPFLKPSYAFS

BLM642-1290 [2] = target: T1, BLM642-1290; assay: fluorescence anisotropy; 0.5 mM NEM, 2 mM DTT, no Cd2+; 50 mM Tris-HCl pH 8.0, 50 mM NaCl, 1 mM DTT, 25 C; 200 nM protein, 5 nM 3'-fluorescein DNA; settings: protein: recombinant; label: 3'-fluorescein

T1 sequence (P54132 642-1290): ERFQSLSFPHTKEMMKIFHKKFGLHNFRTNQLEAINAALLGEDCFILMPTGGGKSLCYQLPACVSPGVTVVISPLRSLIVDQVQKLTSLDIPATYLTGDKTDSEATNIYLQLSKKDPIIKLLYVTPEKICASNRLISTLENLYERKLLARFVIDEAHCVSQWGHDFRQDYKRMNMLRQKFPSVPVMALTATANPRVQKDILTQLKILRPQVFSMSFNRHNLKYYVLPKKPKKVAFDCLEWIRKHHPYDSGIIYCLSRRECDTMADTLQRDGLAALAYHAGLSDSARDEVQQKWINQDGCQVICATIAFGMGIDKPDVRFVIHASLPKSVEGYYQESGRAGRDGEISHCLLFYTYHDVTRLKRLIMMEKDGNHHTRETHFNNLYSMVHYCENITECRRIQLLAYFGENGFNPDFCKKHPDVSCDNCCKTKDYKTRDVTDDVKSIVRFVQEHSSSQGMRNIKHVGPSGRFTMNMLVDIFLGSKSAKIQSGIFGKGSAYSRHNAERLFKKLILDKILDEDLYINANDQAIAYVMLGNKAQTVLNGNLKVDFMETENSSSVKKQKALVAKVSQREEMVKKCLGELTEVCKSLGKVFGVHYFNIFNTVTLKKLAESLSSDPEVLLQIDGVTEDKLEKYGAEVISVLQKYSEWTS
Chain of RecQ E. coli (P15043 whole entry): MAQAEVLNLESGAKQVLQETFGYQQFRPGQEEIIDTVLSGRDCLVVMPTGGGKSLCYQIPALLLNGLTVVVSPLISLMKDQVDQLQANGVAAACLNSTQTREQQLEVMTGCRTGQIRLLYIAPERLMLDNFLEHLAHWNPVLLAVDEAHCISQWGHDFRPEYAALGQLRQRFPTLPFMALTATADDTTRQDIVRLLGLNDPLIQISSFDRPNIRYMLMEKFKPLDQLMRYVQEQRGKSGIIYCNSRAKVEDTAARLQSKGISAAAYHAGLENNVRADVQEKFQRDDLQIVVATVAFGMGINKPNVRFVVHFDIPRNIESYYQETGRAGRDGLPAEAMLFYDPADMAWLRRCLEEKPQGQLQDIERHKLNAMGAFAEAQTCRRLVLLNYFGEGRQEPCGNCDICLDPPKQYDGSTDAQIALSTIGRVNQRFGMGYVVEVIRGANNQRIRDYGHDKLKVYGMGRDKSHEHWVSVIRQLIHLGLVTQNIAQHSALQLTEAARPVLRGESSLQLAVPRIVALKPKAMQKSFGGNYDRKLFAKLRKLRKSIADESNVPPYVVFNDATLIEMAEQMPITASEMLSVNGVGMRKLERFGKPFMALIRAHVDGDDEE

B1: F-24 ss (ssDNA)
DNA: GCCCTGCTGCCGACCAACGAAGGT
IC50 (RecQ E. coli): 40.2 µM
IC50 (BLM642-1290 [1]): 10.2 µM
IC50 (BLM full-length): 6.63 µM

B2: F-40 (ssDNA)
DNA: GCCCTGCTGCCGACCAACGATGGTTACATTCCCGCTGCTG
IC50 (RecQ E. coli): 39.2 µM
IC50 (BLM642-1290 [1]): 9.98 µM
IC50 (BLM full-length): 6.64 µM

B3: F-18 (ssDNA)
DNA: GCCTCGCTGCCGTCGCCA
binding result (BLM642-1290 [2]): binds

— publication PMC4872126, “Mechanistic insight into cadmium-induced inactivation of the Bloom protein”
